The results in this text go back to patent US20250019680, “ENGINEERED CAS13 FOR ULTRASENSITIVE NUCLEIC ACID DETECTION” (William Marsh Rice University, published 2025).

For series [1], the target named is T1, RBD #3L LwaCas13a (Leptotrichia wadei / Homo sapiens). In words: cleavage_in_vitro; collateral cleavage of RNaseAlert, 30 min. As to conditions: label: body 32P for EMSA. (A gel shift assay detects complexes by their altered migration in electrophoresis.)
Series [2] has as its target T2, RBD #6L LwaCas13a (ADAR1 126-202 in Loop 1) (Leptotrichia wadei / Homo sapiens).
T2 chain: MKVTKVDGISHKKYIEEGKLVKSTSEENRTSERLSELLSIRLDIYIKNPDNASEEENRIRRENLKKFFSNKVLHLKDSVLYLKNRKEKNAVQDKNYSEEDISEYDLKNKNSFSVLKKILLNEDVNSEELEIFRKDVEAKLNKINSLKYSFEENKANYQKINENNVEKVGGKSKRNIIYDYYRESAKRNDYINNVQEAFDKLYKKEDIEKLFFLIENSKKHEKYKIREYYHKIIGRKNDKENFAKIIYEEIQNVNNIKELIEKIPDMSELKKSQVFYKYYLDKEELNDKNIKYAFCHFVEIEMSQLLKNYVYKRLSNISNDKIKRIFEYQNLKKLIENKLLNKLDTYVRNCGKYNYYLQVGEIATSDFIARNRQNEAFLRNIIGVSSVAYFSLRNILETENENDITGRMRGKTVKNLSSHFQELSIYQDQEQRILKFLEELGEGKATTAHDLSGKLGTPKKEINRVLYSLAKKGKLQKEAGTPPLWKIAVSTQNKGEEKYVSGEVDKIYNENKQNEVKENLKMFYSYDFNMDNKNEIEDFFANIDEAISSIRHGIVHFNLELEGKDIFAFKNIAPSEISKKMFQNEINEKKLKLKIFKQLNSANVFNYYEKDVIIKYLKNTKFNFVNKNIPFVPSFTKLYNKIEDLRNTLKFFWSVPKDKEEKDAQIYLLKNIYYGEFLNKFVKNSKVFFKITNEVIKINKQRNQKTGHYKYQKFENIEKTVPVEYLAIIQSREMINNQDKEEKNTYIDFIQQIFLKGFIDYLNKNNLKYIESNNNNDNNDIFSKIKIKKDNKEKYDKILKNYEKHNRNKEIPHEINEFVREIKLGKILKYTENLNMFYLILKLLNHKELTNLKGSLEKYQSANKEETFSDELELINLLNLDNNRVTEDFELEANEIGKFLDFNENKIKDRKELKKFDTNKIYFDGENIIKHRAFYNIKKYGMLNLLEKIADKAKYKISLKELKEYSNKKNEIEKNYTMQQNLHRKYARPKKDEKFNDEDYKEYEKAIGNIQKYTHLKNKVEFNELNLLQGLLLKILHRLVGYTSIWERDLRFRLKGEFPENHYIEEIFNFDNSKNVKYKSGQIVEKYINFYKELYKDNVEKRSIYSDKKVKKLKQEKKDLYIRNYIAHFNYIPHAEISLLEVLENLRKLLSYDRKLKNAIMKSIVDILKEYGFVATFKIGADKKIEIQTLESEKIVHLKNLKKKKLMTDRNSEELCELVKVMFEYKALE
The description is as above. As to conditions: label: body 32P for EMSA.

Series [3] addresses T3, RBD #2L LwaCas13a (hnRNP A1 1-104 in Loop 1) (Leptotrichia wadei / Homo sapiens). The description is as above. As to conditions: label: body 32P for EMSA.
The target in series [4] is T4, RBD #1L LwaCas13a (ADAR1 708-801 in Loop 1) (Leptotrichia wadei / Homo sapiens).
T4 chain: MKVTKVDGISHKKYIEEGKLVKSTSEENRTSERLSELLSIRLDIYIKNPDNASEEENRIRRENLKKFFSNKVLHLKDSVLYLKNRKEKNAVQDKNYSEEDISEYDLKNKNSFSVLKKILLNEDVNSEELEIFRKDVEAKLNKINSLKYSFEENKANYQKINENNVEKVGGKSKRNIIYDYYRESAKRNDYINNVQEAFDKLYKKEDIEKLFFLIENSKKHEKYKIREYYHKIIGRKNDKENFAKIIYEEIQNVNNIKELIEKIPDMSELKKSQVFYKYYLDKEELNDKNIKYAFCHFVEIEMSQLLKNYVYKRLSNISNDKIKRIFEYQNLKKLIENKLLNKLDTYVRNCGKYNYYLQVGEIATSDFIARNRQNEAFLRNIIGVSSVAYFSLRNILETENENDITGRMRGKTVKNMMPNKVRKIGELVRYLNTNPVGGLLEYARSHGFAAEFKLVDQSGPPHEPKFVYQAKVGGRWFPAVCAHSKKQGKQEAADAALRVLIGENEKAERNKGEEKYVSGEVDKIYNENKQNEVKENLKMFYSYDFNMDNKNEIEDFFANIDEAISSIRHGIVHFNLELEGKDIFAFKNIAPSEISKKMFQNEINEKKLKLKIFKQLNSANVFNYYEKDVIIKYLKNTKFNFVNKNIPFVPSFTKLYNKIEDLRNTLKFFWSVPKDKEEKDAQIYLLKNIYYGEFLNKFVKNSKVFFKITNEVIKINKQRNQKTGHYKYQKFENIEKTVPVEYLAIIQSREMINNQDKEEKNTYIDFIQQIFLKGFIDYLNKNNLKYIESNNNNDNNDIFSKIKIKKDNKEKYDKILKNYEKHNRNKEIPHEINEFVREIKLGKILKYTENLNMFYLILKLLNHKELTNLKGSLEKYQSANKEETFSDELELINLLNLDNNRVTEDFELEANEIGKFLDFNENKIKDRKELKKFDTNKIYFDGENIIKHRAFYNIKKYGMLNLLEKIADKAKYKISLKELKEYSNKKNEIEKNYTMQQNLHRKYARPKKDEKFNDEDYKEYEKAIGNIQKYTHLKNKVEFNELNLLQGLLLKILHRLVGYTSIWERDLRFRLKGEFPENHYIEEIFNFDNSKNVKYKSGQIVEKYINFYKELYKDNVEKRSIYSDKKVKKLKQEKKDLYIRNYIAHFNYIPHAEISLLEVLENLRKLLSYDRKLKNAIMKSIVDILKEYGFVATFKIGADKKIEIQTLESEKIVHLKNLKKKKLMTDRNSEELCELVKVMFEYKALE
Described as above. As to conditions: label: body 32P for EMSA.

For series [5], the target named is T5, RBD #4L LwaCas13a (Leptotrichia wadei / Homo sapiens). The description is as above. As to conditions: label: body 32P for EMSA.
Series [6] concerns the target T6, dWT LwaCas13a (Leptotrichia wadei, R1046A/H1051A).
T6 chain: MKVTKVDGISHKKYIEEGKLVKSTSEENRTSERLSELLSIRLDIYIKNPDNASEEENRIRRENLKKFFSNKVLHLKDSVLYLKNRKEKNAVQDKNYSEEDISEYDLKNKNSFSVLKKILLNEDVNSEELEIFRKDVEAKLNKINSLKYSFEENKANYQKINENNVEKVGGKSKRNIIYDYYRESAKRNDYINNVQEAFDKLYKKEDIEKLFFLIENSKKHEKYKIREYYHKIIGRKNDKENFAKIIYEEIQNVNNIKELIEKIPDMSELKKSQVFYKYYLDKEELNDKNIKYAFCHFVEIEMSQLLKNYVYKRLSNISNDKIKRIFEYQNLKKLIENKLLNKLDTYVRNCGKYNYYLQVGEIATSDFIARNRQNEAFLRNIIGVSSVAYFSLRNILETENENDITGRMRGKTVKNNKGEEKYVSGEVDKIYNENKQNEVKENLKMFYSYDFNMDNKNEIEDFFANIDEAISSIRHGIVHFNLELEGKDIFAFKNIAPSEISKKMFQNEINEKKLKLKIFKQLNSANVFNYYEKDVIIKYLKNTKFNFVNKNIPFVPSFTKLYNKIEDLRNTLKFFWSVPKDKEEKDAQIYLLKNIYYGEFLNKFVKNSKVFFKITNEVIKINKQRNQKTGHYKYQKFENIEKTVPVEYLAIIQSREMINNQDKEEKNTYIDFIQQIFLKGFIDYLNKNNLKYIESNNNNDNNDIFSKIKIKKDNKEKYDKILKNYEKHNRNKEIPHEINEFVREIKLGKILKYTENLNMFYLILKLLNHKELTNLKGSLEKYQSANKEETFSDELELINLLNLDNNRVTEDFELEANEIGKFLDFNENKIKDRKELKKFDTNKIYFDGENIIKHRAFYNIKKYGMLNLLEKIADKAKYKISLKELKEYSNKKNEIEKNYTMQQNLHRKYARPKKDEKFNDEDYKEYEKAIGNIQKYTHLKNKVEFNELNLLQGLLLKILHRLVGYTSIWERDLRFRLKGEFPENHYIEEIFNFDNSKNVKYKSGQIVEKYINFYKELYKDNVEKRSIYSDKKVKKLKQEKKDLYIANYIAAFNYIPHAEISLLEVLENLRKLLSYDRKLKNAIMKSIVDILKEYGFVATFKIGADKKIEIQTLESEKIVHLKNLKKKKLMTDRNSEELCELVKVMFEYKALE
Kind of series: EMSA; crRNA complex; 5 mM MgCl2, 37 C. As to conditions: label: body 32P for EMSA.

Series [7] concerns the target T6, dWT LwaCas13a. Kind of series: EMSA; crRNA complex; 50 mM Tris pH 8.0, 60 mM NaCl, 5 mM MgCl2, 37 C. As to conditions: label: body 32P.
For series [8], the target named is T1, RBD #3L LwaCas13a. In words: cleavage_in_vitro; collateral cleavage of RNaseAlert.
Series [9] concerns the target T2, RBD #6L LwaCas13a (ADAR1 126-202 in …). Described as above.
In series [10] the target is T3, RBD #2L LwaCas13a (hnRNP A1 1-104 in …). The series is described as above.
Series [11] concerns the target T5, RBD #4L LwaCas13a. The series is described as above.

B1: cr1_N crRNA ; T1_N target (105 nt) (ssRNA ; ssRNA)
RNA 1: GACUACCCCAAAAACGAAGGGGACUAAAACAAUCUGAGGGUCCACCAAACGUAAUGCG
RNA 2: GUCUGAUAAUGGACCCCAAAAUCAGCGAAAUGCACCCCGCAUUACGUUUGGUGGACCCUCAGAUUCAACUGGCAGUAACCAGAAUGGAGAACGCAGUGGGGCGCG
B1: the binding signal was 468 % higher than WT with RBD #3L LwaCas13a [1]; 174 % higher than WT in series [2]; 216 % higher than WT in [3]; 59 % higher than WT in [4]; 518 % higher than WT with RBD #4L LwaCas13a [5]. For the same molecule, binding in the series with dWT LwaCas13a [6] was put at a Kd of 16 nM.

B2: cr1_N crRNA ; T26_N_2 target (36 nt) (ssRNA ; ssRNA)
RNA 1: GACUACCCCAAAAACGAAGGGGACUAAAACAAUCUGAGGGUCCACCAAACGUAAUGCG
RNA 2: ACCCCGCAUUACGUUUGGUGGACCCUCAGAUUCAAC
In the series with dWT LwaCas13a [7], B2 had a Kd of 46 nM.

B3: cr3_ssRNA1_0 crRNA ; T3_ssRNA1 target (ssRNA ; ssRNA)
RNA 1: GACUACCCCAAAAACGAAGGGGACUAAAACUAGAUUGCUGUUCUACCAAGUAAUCCAU
RNA 2: GGCCAGUGAAUUCGAGCUCGGUACCCGGGGAUCCUCUAGAAAUAUGGAUUACUUGGUAGAACAGCAAUCUACUCGACCUGCAGGCAUGCAAGCUUGGCGUAAUCAUGGUCAUAGCUGUUUCCUGUGUUUAUCCGCUCACAAUUCCACACAACAUACGAGCCGGAAGCAUAAAG
For the molecule B3, the binding signal was 102 % higher than WT with RBD #3L LwaCas13a [8], 38 % higher than WT in [9], 59 % higher than WT in [10] and 91 % higher than WT in the series with RBD #4L LwaCas13a [11].

Usually Kd stands for a measure of binding affinity in units of concentration.
